B1: Homeobox protein SIX1 (Mus musculus), Q62231 (parent)
chain: MSMLPSFGFTQEQVACVCEVLQQGGNLERLGRFLWSLPACDHLHKNESVLKAKAVVAFHRGNFRELYKILESHQFSPHNHPKLQQLWLKAHYVEAEKLRGRPLGAVGKYRVRRKFPLPRTIWDGEETSYCFKEKSRGVLREWYAHNPYPSPREKRELAEATGLTTTQVSNWFKNRRQRDRAAEAKERENTENNNSSSNKQNQLSPLEGGKPLMSSSEEEFSPPQSPDQNSVLLLQSNMGHARSSNYSLPGLTASQPSHGLQAHQHQLQDSLLGPLTSSLVDLGS
partner: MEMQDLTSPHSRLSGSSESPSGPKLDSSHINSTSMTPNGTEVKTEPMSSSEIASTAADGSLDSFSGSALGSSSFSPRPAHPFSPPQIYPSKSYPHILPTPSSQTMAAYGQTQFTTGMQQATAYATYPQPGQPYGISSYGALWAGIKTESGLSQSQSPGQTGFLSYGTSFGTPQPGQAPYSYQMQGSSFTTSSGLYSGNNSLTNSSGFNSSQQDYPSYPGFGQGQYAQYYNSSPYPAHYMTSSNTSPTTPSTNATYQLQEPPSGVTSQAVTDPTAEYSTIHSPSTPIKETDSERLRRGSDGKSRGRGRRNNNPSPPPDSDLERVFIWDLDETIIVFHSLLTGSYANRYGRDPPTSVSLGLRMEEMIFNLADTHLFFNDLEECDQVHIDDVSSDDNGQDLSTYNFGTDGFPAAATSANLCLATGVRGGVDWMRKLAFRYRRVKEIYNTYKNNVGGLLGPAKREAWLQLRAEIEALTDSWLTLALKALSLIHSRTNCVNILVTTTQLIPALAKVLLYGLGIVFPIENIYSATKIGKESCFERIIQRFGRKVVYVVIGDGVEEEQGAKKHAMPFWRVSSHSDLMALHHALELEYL

Variants of: B1
Details: with eya1_mouse Eya1, P97767

Row | effect of a mutation on the interaction | Variant
1 | decreasing interaction | MSMLPSFGFTQEQVACVCEVLQQGGNLERLGRFLWSLPACDHLHKNESVLKAKAVVAFHRGNFRELYKILESHQFSPHNHPKLQQLWLKAHYVEAEKLRGRPLGAVGKYRVRRKFPLPRTIWDGEETSCCFKEKSRGVLREWYAHNPYPSPREKRELAEATGLTTTQVSNWFKNRRQRDRAAEAKERENTENNNSSSNKQNQLSPLEGGKPLMSSSEEEFSPPQSPDQNSVLLLQSNMGHARSSNYSLPGLTASQPSHGLQAHQHQLQDSLLGPLTSSLVDLGS [Y129C]
2 | decreasing interaction | MSMLPSFGFTQEQVACVCEVLQQGGNLERLGRFLWSLPACDHLHKNESVLKAKAVVAFHRGNFRELYKILESHQFSPHNHPKLQQLWLKAHYVEAEKLRGRPLGAVGKYWVRRKFPLPRTIWDGEETSYCFKEKSRGVLREWYAHNPYPSPREKRELAEATGLTTTQVSNWFKNRRQRDRAAEAKERENTENNNSSSNKQNQLSPLEGGKPLMSSSEEEFSPPQSPDQNSVLLLQSNMGHARSSNYSLPGLTASQPSHGLQAHQHQLQDSLLGPLTSSLVDLGS [R110W]
